# Measurements taken from the supplement of paper PMC10567573.
# ± gives the standard deviation.
# Experiment: protein stability index of a GFP-peptide fusion (GPS, HEK-293T) (PSI 1-6); higher = more stable
# Conditions: c terminus: a fixed tail appended
# 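Further: 24-mer peptide tiles fused after GFP, lentivirally expressed, FACS-sorted into six equal bins by GFP/DsRed ratio, decoded by Illumina sequencing, PSI is the read-weighted mean bin number.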
Sequence,protein stability index (treatment: DMSO),"protein stability index (treatment: MLN4924 1 uM, 8 h)"
AAAHWYGGAEMRTQHWPIRLDGQQ [MYORG],2.86 ± 0.15,2.79 ± 0.14
AAATTTTTTSAATATTAPPALDIF [SNAP91],4.45 ± 0.24,4.61 ± 0.16
AACFDGRLDIVKYLVENNANISIA [FEM1B],2.38 ± 0.38,2.21 ± 0.38
AAGRVCRPPGPAGTEQSRGLGHGS [CPOX],4.44 ± 0.25,4.53 ± 0.4
AAKLLNVDPDNVVLCLLAADEDDD [GADD45A],3.68 ± 0.16,3.94 ± 0.27
AALEEESRQRQSRMEKGEPYMSIQ [SMARCE1],4.88 ± 0.34,4.88 ± 0.22
AAMLSMVKYNSCADRPFSAPWWFW [POMT2],2.31 ± 0.25,2.1 ± 0.31
AAPGKQPGRGHTHAAQGGPLLCPG [ELOA2],4.09 ± 0.31,4.31 ± 0.26
AASTAAALENLQVEASCSVCLEYL [TRIM39],2.74 ± 0.37,2.81 ± 0.48
AATTSKEQEPIGTDLDAVRTPEPL [MYBL2],5.46 ± 0.3,5.41 ± 0.25
ACGDFFTACLTDRGIIMTFGSGSN [NEK8],2.66 ± 0.83,2.78 ± 0.64
ACSAPGGLVPSEKPPMMPQAQPAI [C2CD2L],4.24 ± 0.15,4.18 ± 0.19
ADFGLARIYSYQMALTPVVVTLWY [CDK4],3.52 ± 0.99,2.78 ± 0.81
ADLELSLPECLEYEEEFDYETESE [GNAS],5.41 ± 0.24,5.47 ± 0.16
ADVLLQAGADLEHESEGGRTPLMK [ANKRD17],5.17 ± 0.34,5.29 ± 0.15
AEDHLDGCCKRRYLQKIEEFAEMV [KCNG1],3.06 ± 0.14,2.96 ± 0.1
AEGHKASFCLEDTECEGDIQKNYE [LOXL2],5.47 ± 0.4,5.33 ± 0.33
AELKEAVEEPSSKDVMEKREDSKE [CHGA],5.67 ± 0.083,5.61 ± 0.17
AFGWFRCSSCQRSWASAQVQILCH [RTP4],2.45 ± 0.37,2.68 ± 0.54
AFKAAALIQRWYRRYVARLEMRRR [PPEF2],3.55 ± 0.57,4.15 ± 0.59
AFLLLPLPDELGSQLPQVLHVSLG [MOSPD3],2.96 ± 0.76,2.73 ± 0.49
AFLRRVKTCNPPDAGPMVVHCSAG [PTPRD],2.15 ± 0.068,2.18 ± 0.3

Sequence,protein stability index (treatment: DMSO),"protein stability index (treatment: MLN4924 1 uM, 8 h)"
AGEGAEALARNLLVDGETGESFPA [NFE2L1],5.37 ± 0.09,5.41 ± 0.21
AGKQRMKEKEQENERKVAQLAEEN [DDIT3],5.29 ± 0.41,5.49 ± 0.43
AGPELDEMLREVDLNGDGTVDFDE [CABP4],5.67 ± 0.23,5.36 ± 0.11
AGSTDDRIVVPQRGRSTRVPVASV [SPNS1],4.22 ± 0.077,4.39 ± 0.45
AGWTLATLGEQGLPHQSHRQRSSL [SCNN1D],3.62 ± 0.21,3.75 ± 0.21
AIDQYRVCQEVLERSRDVVDEVSV [RHOBTB1],4.61 ± 0.21,4.32 ± 0.15
AIRPENRAPGAGLGQDRQVPLWGQ [EMD],3.5 ± 0.21,3.45 ± 0.18
AKDPGKGELPNHPKPAGGAIPTKK [FBF1],5.47 ± 0.34,5.65 ± 0.15
AKINIVYQELNYRSVEEAPVYSVP [SCNN1D],2.17 ± 0.14,2.15 ± 0.45
AKKIKLTAEAEELKPFFMKEVGSH [SOAT1],3.5 ± 0.34,3.59 ± 0.38
ALEEPEKMGLQERSETFLEVWGNA [DNAAF3],4.35 ± 0.22,4.32 ± 0.42
ALILHQRIHSGKKPYACDECAKAF [ZNF396],2.11 ± 0.26,2.84 ± 0.45
ALKEDFGFKHRLWVYSGRRGVHCW [PRIM1],2.28 ± 0.65,2.48 ± 0.61
ALQPSPSIRLPLDAPLPGSKAKPK [TBC1D10A],4.19 ± 0.21,4.32 ± 0.34
ANGGAICAVTFFTILLSYGVILHS [OR4A15],2.79 ± 0.25,2.84 ± 0.31
ANRWSFDGIDRWIKEIDEHAPGVP [RAB40B],3.92 ± 0.076,3.92 ± 0.12
ANSSSEAPFPNVSTSLLTSAGNRT [ADAMTSL2],4.52 ± 0.36,4.49 ± 0.29
APGLYNHLPWQYHAGQGGLFYSAE [CCDC3],2.69 ± 0.084,3.25 ± 1.1
APRPGPPAGTPPPTARHFQEHPRQ [MOSPD3],4.99 ± 0.36,4.86 ± 0.35
APSKEEMLSWILRINLVAAIFSAP [PSD2],2.71 ± 0.32,3.03 ± 0.62
AQQLLREFEEATGEAGWGAGEGRL [FOXJ1],4.74 ± 0.16,4.66 ± 0.34
AQVPPAAPHHHHHHSHSGPEISRI [PLK2],4.09 ± 0.073,4.1 ± 0.13

Sequence,protein stability index (treatment: DMSO),"protein stability index (treatment: MLN4924 1 uM, 8 h)"
ARALLEDDSDTQQVVVLVRDNGDP [PCDHGC5],4.82 ± 0.1,4.79 ± 0.46
AREGLAAPPRRLRSRKVSCPLTRS [FCHO1],3.93 ± 0.12,4.13 ± 0.35
ARICRLLKHPNIVRLHDSISEEGH [CAMK2A],2.85 ± 0.17,2.84 ± 0.33
ARKLTAQRRASTVSSVTQVEVDEN [NET1],5.15 ± 0.39,5.14 ± 0.33
ARKRKNRRLKQAKEEAQAEIEQYR [ATP6V1G1],5.03 ± 0.38,5.13 ± 0.32
ARRRKKILFYCHFPDLLLTKRDSF [ALG2],2.4 ± 0.56,2.04 ± 0.55
ARYIDTHNRVSKEDEDIYKLRHDL [PLK2],3.75 ± 0.3,3.8 ± 0.13
ASDIMEPNLTYVYPHTRIQSLVSI [CLCN6],2.38 ± 0.49,2.34 ± 0.38
ASGPINFTMFLNLFGEKLSGTDAE [MYL5],2.58 ± 0.28,2.6 ± 0.4
ASKKTAQPWVEVVLALRNMKNLLF [MFSD9],2.75 ± 0.73,2.57 ± 0.39
ASLHPSVSPGSPPPPLPNHKYNTT [PLAGL1],4.58 ± 0.14,4.586 ± 0.043
ASLNIKTTVPEVEPPQDSHSRKTV [PRPH],5.21 ± 0.43,5.18 ± 0.21
ASQCCGVHVISLHIWELSSIKNSL [PTGFR],–,2.31 ± 0.52
ASRQKTSLGIELHCNVSNILHMNG [ZNF396],1.97 ± 0.23,2.12 ± 0.14
ASWAKPHYEFNLSRMKFRGNGALS [LCOR],2.56 ± 0.19,2.71 ± 0.24
ATFHVGGGPAQNAPHQQPPAPPSD [TFE3],4.86 ± 0.16,4.84 ± 0.26
AVEGAARTTPSRREITGVQAQPGE [PALM],5.22 ± 0.36,5.31 ± 0.28
AVMEFHVSEDFNKMNFIKTYPAHQ [WDFY1],1.99 ± 0.32,1.93 ± 0.28
AVNRARRPLARPIKRGDILPPEKG [RHOBTB1],3.66 ± 0.23,3.77 ± 0.33
AYEIMQTLHPDASANFHSLDDIYY [FUT8],2.85 ± 0.25,2.93 ± 0.37
CATGLLGSAPFLFLSLACARGSIV [SPNS1],3.02 ± 0.21,2.88 ± 0.28
